Data taken from the supplement of paper PMC10567573.

B1: RAB11A (parent)
chain: AVPTDEARAFAEKNGLSFIETSAL

Variants of: B1
Assay: protein stability index of a GFP-peptide fusion (GPS, HEK-293T) (PSI 1-6); higher = more stable
Settings: c terminus: a fixed tail appended
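Note: lentivirally expressed fusions sorted by FACS into six bins by GFP to DsRed ratio, PSI derived from sequencing read proportions per bin multiplied by bin number.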

Protein stability index of substitutions, site by site:
K13: R 2.52, H 1.77, F 2.24, I 2.09, A 2.57, G 3.15, T 2.18, S 2.9, L 2.17, M 2.12, P 2.28, D 3.88, N 2.43, Q 2.67, E 2.81, C 2.38, V 2.23, W 4.07, Y 2.49
L16: D 4.87, Y 3.14, H 4.3, I 3.85, A 4.51, T 4.14, F 1.91, R 3.8, G 4.35, N 4.05, W 2.6, M 3.73, Q 4.2, V 3.73, P 4.08, E 4.73, S 4.35, K 4.27, C 3.66
S17: T 3.36, Y 2.97, I 2.73, K 3.23, L 2.7, P 4.38, H 3.19, C 2.52, R 3.08, D 3.14, A 2.53, F 2.62, W 2.66, M 2.81, E 4.3, V 2.79, G 3.53, N 1.56, Q 4.02
L24: N 4.47, D 4.79, I 2.34, F 2.73, P 4.62, S 4.39, E 5.03, M 3.08, C 3.07, V 3.31, T 3.98, R 2.63, Q 3.47, A 4, K 3.53, G 5.05, H 4.06, Y 3.04, W 2.72
E12: N 2.41, I 1.39, Y 1.74, V 2.3, R 2.55, T 1.46, M 1.54, K 1.81, F 1.69, D 2.54, S 2.01, P 1.88, G 1.9, A 2.07, H 1.96, W 2.08, C 2.85, L 1.75, Q 1.77
T21: P 2.15, L 2.46, I 1.8, Q 3.75, H 2.67, D 4.45, W 2.39, C 2.87, N 2.47, F 2.37, V 2.12, E 4.34, G 1.78, Y 1.5, M 2.64, K 3.37, S 3.11, R 2.5, A 2.49
E20: C 2.01, W 1.44, A 2.27, G 2.02, Y 2.35, S 3.01, F 1.79, H 1.87, M 1.81, V 1.86, K 2.8, R 2.5, T 2.41, L 1.74, N 2.24, P 3.12, D 2.08, Q 2.34, I 1.8
A23: L 1.9, G 3.49, V 2.12, N 2.87, W 1.55, K 2.42, T 2.08, C 2.08, S 2.79, Y 1.81, D 4.18, P 2.82, E 3.68, H 2.04, Q 2.52, F 1.66, R 2.04, M 1.81, I 1.65
F10: H 2.54, M 2.27, V 2.46, L 2.33, R 2.49, Y 2.71, Q 3.08, P 2.31, D 3.86, T 2.91, E 3.81, K 2.37, W 2.36, G 2.24, A 2.76, S 2.84, I 2.44, C 2.43, N 2.9
F18: M 3.93, G 4.35, W 3.46, C 4.29, Y 2.62, I 3.6, Q 4.33, L 4.14, V 4.35, R 4.22, P 4.68, E 4.57, T 4.32, A 4.62, S 4.62, D 5.03, K 4.2, H 4.72, N 4.47
N14: M 1.92, Y 2.17, Q 2.85, G 2.15, S 2.95, E 3.54, D 3.62, V 1.85, W 1.74, P 2.44, C 1.71, I 2.13, A 1.96, H 2.36, R 2.52, K 2.46, F 2.25, L 2.03, T 2.39
A7: M 2.05, R 2.46, N 2.33, P 2.04, T 2.57, Q 2.87, K 2.19, V 2.25, L 2.28, S 2.68, Y 2.45, W 2.09
R8: C 2.32, S 2.68, I 2.59, L 2.16, F 1.97, W 2.46, H 2.7, Y 1.99, G 2.63, P 1.86, V 2.72, T 2.84, K 2.61, D 2.82, A 2.64, N 2.64, Q 2.66, E 3.25, M 2.4
A11: M 2.24, V 2.65, I 1.91, D 3.24, Y 2.2, T 2.31, G 1.97, Q 2.21, W 1.9, L 2.32, N 2.5, F 1.94, E 2.76, S 2.63, P 2.33, C 2.32, K 1.96, R 2.12, H 2.64
S22: T 2.49, V 2.64, Y 2.08, L 2.5, C 2.54, I 1.76, G 2.91, W 1.6, H 2.22, E 4.01, P 3.73, A 2.35, N 3.38, F 2.27, Q 3.14, D 3.84, R 2.25, M 1.95, K 3.44
G15: M 2.02, P 2.2, L 1.67, Y 1.74, R 2.52, F 1.82, Q 2.58, C 2.59, K 2.92, V 2.64, S 2.06, H 2.15, D 3.87, T 1.7, E 3.33, I 2.8, A 2.08, W 2.3
I19: L 3.71, D 4.56, Q 3.6, V 3, G 4.5, R 3.85, N 4.43, S 4.41, Y 3.81, E 4.24, H 2.46, K 4.12, F 3.4, C 3.45, M 3.91, A 4.39, W 3.92, T 4.17, P 4.5
A9: M 2.35, P 2.08, S 2.35, Y 2.11, H 1.97, E 3.13, Q 2.62, D 2.78, I 2.33, W 2.27, F 2.1, K 2.34, L 2.45, T 2.96, C 1.82, G 2.57, V 2.45, N 2.46, R 1.96
